Source: US12460006B2, “Antibodies against integrin alpha 11 beta 1” (Momenta Pharmaceuticals, Inc., priority 2019, dated 2025)

T1: I domain of α11β1 (Homo sapiens, UniProt Q9UKX5)
T1 construct: An in-house generated I domain of α11β1 was used; made in house
T1 sequence (Q9UKX5 164-345 limits assumed): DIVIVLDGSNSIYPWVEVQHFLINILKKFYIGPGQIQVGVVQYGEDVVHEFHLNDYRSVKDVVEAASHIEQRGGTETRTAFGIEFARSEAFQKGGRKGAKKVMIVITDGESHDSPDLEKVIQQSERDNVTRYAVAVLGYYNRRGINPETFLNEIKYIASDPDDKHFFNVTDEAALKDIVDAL


Assays:
human α11β1 = human α11β1 (Homo sapiens, UniProt Q9UKX5); assay: ELISA binding to recombinant human α11β1; settings: binding Yes/No
Sequence of human α11β1 (Q9UKX5 23-1141 limits assumed): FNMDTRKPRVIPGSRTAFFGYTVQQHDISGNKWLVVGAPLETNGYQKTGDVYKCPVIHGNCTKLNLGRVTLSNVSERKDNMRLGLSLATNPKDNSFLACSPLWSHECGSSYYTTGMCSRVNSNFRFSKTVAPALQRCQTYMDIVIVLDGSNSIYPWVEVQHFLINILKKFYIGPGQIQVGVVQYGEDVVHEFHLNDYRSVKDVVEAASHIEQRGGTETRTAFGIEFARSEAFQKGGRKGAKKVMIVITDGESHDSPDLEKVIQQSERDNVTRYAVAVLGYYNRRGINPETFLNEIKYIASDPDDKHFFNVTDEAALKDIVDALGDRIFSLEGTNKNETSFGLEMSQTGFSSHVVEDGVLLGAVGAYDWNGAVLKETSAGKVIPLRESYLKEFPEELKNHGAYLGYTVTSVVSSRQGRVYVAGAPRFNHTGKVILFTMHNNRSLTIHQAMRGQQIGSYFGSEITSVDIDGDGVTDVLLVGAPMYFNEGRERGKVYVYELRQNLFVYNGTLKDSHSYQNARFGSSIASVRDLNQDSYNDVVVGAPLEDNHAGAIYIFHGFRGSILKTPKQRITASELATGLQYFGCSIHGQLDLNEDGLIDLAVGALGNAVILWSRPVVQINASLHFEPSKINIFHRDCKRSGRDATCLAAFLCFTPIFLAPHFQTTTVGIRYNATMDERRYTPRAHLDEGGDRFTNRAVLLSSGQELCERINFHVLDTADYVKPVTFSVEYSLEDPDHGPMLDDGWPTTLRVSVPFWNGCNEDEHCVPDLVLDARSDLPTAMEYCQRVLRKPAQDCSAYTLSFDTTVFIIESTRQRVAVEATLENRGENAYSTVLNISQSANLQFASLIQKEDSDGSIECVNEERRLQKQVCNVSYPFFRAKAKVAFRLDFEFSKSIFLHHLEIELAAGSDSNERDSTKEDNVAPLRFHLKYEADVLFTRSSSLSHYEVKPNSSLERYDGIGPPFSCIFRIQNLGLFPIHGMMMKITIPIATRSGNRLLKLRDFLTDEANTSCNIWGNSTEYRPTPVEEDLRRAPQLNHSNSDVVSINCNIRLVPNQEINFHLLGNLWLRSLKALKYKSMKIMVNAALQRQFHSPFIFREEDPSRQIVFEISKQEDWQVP
Sequence of human α11β1 (P05556 21-728 partner limits assumed): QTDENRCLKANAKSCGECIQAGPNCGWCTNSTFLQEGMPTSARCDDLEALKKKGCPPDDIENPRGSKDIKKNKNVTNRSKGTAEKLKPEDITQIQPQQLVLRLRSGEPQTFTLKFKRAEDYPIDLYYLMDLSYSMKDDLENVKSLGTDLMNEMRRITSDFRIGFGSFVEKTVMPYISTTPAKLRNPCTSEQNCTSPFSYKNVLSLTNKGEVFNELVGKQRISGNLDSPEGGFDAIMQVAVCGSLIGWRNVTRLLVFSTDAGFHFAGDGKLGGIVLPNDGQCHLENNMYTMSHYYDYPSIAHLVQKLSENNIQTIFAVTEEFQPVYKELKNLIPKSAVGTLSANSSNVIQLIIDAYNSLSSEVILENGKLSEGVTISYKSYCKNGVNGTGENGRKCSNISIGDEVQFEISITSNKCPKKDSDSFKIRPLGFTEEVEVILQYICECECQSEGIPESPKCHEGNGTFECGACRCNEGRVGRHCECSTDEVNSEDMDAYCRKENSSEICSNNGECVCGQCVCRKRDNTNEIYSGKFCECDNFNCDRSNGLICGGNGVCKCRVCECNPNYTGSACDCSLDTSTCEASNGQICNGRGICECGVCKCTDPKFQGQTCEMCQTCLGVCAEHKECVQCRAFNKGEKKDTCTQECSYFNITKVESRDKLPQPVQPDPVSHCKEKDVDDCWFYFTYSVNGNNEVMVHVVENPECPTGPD
In short: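 Antibodies at a range of concentrations bind plate-immobilized recombinant α11β1 (human or mouse, 0.25 μg/mL coating) for 1 h at room temperature.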

[1] = test system: Human Pulmonary Fibroblasts; assay: Fibroblast-to-Myofibroblasts Transition (FMT), αSMA expression; assay type: cell-based; settings: Yes/No
In short: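 Cells seeded at 20,000/well, serum-starved 24 h, then given TGFβ-1 with or without anti-α11 antibodies for 48 h; polyclonal anti-α11 and isotype IgG served as controls. Fixed, permeabilized cells were stained for αSMA and analysed by flow cytometry (single-cell gMFI). Values are normalized to untreated control as % inhibition.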

[2] = test system: CHO-K1 cells expressing human α11; assay: Cell adhesion inhibition (xCelligence), type I collagen; assay type: cell-based; settings: Yes/No
In short: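 CHO-K1 cells expressing human α11 (0.6×10^6 cells/mL) were preincubated with mAbs across a concentration range for 20 min at 37° C, then seeded on wells coated with 100 ng/mL type I collagen and blocked with 3% BSA. Impedance-based adhesion was recorded over 6 h, and maximum adhesion was compared with untreated control.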

I domain of α11β1 = target: T1, I domain of α11β1; assay: ELISA binding to in-house generated I domain of α11β1; settings: Yes/No
In short: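 Plate-coated antigen (0.25 μg/mL, overnight 4° C) probed with antibody dilution series 1 h at room temperature, then biotinylated anti-IgG and streptavidin-HRP, 1 h each. TMB substrate 5 min, stopped, absorbance at 450 nm; in-house I domain of α11β1 used as target.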

myofibroblasts (MF) = assay: FACS antibody binding to myofibroblasts; parameters: species or system human; settings: binding Yes/No
In short: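 Human pulmonary fibroblasts, serum-starved 24 h then TGFβ-1-treated 72 h to give myofibroblasts, were blocked with heat-inactivated FBS and stained with anti-α11 antibodies, then PE secondary, 30 min each at 4 °C, before 1% PFA fixation. Binding read by flow cytometry as PE geometric MFI of single cells.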

[3] = test system: human pulmonary fibroblasts (HPFs); assay: FACS antibody binding to human pulmonary fibroblasts; settings: binding Yes/No

| Human α11β1 ELISA (human α11β1) | I Domain binding (I domain of α11β1) | MF FACS (myofibroblasts (MF)) | HPF FACS [3] | Molecule | Inhibition of FMT [1] | Inhibition of CHO-K1 adhesion to collagen [2] |
| --- | --- | --- | --- | --- | --- | --- |
| Yes | No | Yes | No | 6C7: rabbit anti-α11β1 mAb; heavy chain SEQ ID NO: 185, light chain SEQ ID NO: 186 (antibody) heavy: METGLRWLLLVAVLKGVQCQQQLEESGGGLVKPGGTLTLTCKASGIDFSSYYYMCWVRQAPGKGLELIVCIYTSSGGTWYASWVNGRLTISRSTSLNTVDLKMTSLTAADTATYFCARGVYSGSSDYPTRLDLWGQGTLVTVSLGQPKAPSVFPLAPCCGDTPSSTVTLGCLVKGYLPEPVTVTWNSGTLTNGVRTFPSVRQSSGLYSLSSVVSVTSSSQPVTCNVAHPATNTKVDKTVAPSTCSKPMCPPPELPGGPSVFIFPPKPKDTLMISRTPEVTCVVVDVSQDDPEVQFTWYINNEQVRTARPPLREQQFNSTIRVVSTLPIAHQDWLRGKEFKCKVHNKALPAPIEKTISKARGQPLEPKVYTMGPPREELSSRSVSLTCMINGFYPSDISVEWEKNGKAEDNYKTTPTVLDSDGSYFLYSKLSVPTSEWQRGDVFTCSVMHEALHNHYTQKSISRSPGK light: MDTSTSTALLGLLLLWLTGARCAIEMTQSPPSLSASVGETVRIRCLASEDIYSGISWYQQKPEKPPTLLISGASNLESGVPPRFSGGGSGTDYTLTIGGVQAEDVATYYCLGGYSFSSTGLTFGAGTKVEIKRDPVAPSVLLFPPSKEELTTGTATIVCVANKYFPDVTVTWEVDGTTQTTGIENSKTPQNSADCTYNLSSTLTLTSTQYNSHKEYTCKVTQGTTSVVQSFNRGDC | No | Yes |
| Yes | Yes | No | No | 10-L15: mouse anti-α11β1 mAb; VH SEQ ID NO: 119, VL SEQ ID NO: 120 (antibody, V domains shown) VH: QVQLQQSGPELVRPGASVKMSCKASGYTFTSYWMHWVKQRPGQGLEWIGMIDPSNSETWLNQKFKDKATLNVDKSSNTAYMQLSSLTSEDSAVYYCARYDGYYDYWGQGTTLTVSS VL: NIVLTQSPASLAVSLGQRATISCRASESVDSYGNSFMHWYQQKPGQPPKLLIYLASNVESGVPARFSGSGSRTDFTLTIDPVEADDAATYYCQQNNEDPWTFGGGTKLEIK | No | No |
| Yes | No | Yes | No | 3B1: rabbit anti-α11β1 mAb; heavy chain SEQ ID NO: 201, light chain SEQ ID NO: 202 (antibody) heavy: METGLRWLLLVAVLKGVQCQEQLEESGGGLVKPEGSLTLTCKASGFDLSSGYDMCWVRQAPGKGLEWIACIYADYSGSTYYASWVNGRFTISSSTSLNTVDLKMTSLTAADTATYFCARGATGNGGYGYYFNLWGPGTLVTVSSGQPKAPSVFPLAPCCGDTPSSTVTLGCLVKGYLPEPVTVTWNSGTLTNGVRTFPSVRQSSGLYSLSSVVSVTSSSQPVTCNVAHPATNTKVDKTVAPSTCSKPMCPPPELPGGPSVFIFPPKPKDTLMISRTPEVTCVVVDVSQDDPEVQFTWYINNEQVRTARPPLREQQFNSTIRVVSTLPIAHQDWLRGKEFKCKVHNKALPAPIEKTISKARGQPLEPKVYTMGPPREELSSRSVSLTCMINGFYPSDISVEWEKNGKAEDNYKTTPTVLDSDGSYFLYSKLSVPTSEWQRGDVFTCSVMHEALHNHYTQKSISRSPGK light: MDTRAPTQLLGLLLLWLPGARCADIVMTQTPASVSEPVGGTVTIKCQASQNINSGLAWYQQKPGQPPKLLIYKASTLASGVSSRFKGSGSGTEFTLTISDLECADAATYYCQTYYYSSSSSDNAFGGGTEVVVKGDPVAPTVLIFPPAADQVATGTVTIVCVANKYFPDVTVTWEVDGTTQTTGIENSKTPQNSADCTYNLSSTLTLTSTQYNSHKEYTCKVTQGTTSVVQSFNRGDC | No | Yes |
| Yes | No | Yes | No | 5D7: rabbit anti-α11β1 mAb; heavy chain SEQ ID NO: 191, light chain SEQ ID NO: 192 (antibody) heavy: METGLRWLLLVAVLKGVQCQEQLVESGGGLVQPEGSLTLTCKASGFDFSSNAMCWVRQAPGKGLEWIACIYNGDGSTYYASWVNGRFTISKTSSTTVTLQMTSLTAADTATYFCARGLSNWNRDNLWGPGTLVTVSSGQPKAPSVFPLAPCCGDTPSSTVTLGCLVKGYLPEPVTVTWNSGTLTNGVRTFPSVRQSSGLYSLSSVVSVTSSSQPVTCNVAHPATNTKVDKTVAPSTCSKPMCPPPELPGGPSVFIFPPKPKDTLMISRTPEVTCVVVDVSQDDPEVQFTWYINNEQVRTARPPLREQQFNSTIRVVSTLPIAHQDWLRGKEFKCKVHNKALPAPIEKTISKARGQPLEPKVYTMGPPREELSSRSVSLTCMINGFYPSDISVEWEKNGKAEDNYKTTPTVLDSDGSYFLYSKLSVPTSEWQRGDVFTCSVMHEALHNHYTQKSISRSPGK light: MDTRAPTQLLGLLLLWLPGATFAQVLTQTPSSVSAAVGGTATINCQASQSLYSPKNLAWYQQTPGQPPKLLIYSASKLASGVPSRFKGSGSGTQFTLTISGVQCDDAAIYYCQGEFSCTTAACFAFGGGTEVVVKGDPVAPTVLIFPPAADQVATGTVTIVCVANKYFPDVTVTWEVDGTTQTTGIENSKTPQNSADCTYNLSSTLTLTSTQYNSHKEYTCKVTQGTTSVVQSFNRGDC | No | Yes |
| Yes | No | Yes | No | 5A7: rabbit anti-α11β1 mAb; heavy chain SEQ ID NO: 193, light chain SEQ ID NO: 194 (antibody) heavy: METGLRWLLLVAVLKGVQCQSLEESGGGLVQPEGSLTLACTASGFSFSSYYYICWVRQAPGTGLEWIGCINTGSDDTHYASWLKGRFTFSKASSTTLTLQMTSLTAADTATYFCARSSGSSDDAYDLWGPGTLVTVSSGQPKAPSVFPLAPCCGDTPSSTVTLGCLVKGYLPEPVTVTWNSGTLTNGVRTFPSVRQSSGLYSLSSVVSVTSSSQPVTCNVAHPATNTKVDKTVAPSTCSKPMCPPPELPGGPSVFIFPPKPKDTLMISRTPEVTCVVVDVSQDDPEVQFTWYINNEQVRTARPPLREQQFNSTIRVVSTLPIAHQDWLRGKEFKCKVHNKALPAPIEKTISKARGQPLEPKVYTMGPPREELSSRSVSLTCMINGFYPSDISVEWEKNGKAEDNYKTTPTVLDSDGSYFLYSKLSVPTSEWQRGDVFTCSVMHEALHNHYTQKSISRSPGK light: MDTRAPTQLLGLLLLWLPGARCDVVMTQTPASVSEPVGGAVTIKCQASQSIGSNLAWYQHKPGQPPKLLIYFASSLASGVSSRFKGGRSGTQFTLTISDLECADAATYYCHCTYYPLSYVTFGGGTEVVVKGDPVAPTVLIFPPAADQVATGTVTIVCVANKYFPDVTVTWEVDGTTQTTGIENSKTPQNSADCTYNLSSTLTLTSTQYNSHKEYTCKVTQGTTSVVQSFNRGDC | No | Yes |
